Measured values from publication PMC7139925, “Tuning the Polymorphism of the Anti-VEGF G-rich V7t1 Aptamer by Covalent Dimeric Constructs”.

Biological target: VEGF165 (UniProt P15692-4 27-191)
Experiment: EMSA; annealed; HEPES/Na+; 1:1.3; almost fully bound; 25 mM HEPES, 150 mM NaCl, pH 7.4; 30 pmol oligo + 40 pmol protein in 9 uL, 30 min at 4 C; 7% native PAGE in TAE 1X pH 7.8 at r.t.
Settings: protein: recombinant; chain copies: 2; G4; 2 copies of strand covalently linked 3'-3'

Sequence of VEGF165 (P15692 other isoform, or with tags, fused parts or gaps): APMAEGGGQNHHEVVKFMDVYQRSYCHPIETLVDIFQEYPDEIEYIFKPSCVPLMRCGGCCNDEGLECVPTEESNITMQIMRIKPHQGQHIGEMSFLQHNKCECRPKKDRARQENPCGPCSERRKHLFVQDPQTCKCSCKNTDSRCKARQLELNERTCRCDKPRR

B1: bisV7t1TEG2D (structured_DNA)
DNA: TGTGGGGGTGGACGGGCCGGGTAGA
modifications: two V7t1 copies joined 3' to 3' by TEG/symmetric doubler linker (C25H53N2O24P5), inverted polarity
B1: binds.
